T1: BmERR DBD (Bombyx mori, UniProt A0A1B1M0R7 103-178)
T1 sequence: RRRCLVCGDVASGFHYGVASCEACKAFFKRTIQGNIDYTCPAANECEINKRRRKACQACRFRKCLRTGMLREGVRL

B1: Tret1 CRE2 (dsDNA)
DNA 1: TTTTTGTAACCTTAAACTCCT
DNA 2: AGGAGTTTAAGGTTACAAAAA
B2: Tret1 CRE1 (dsDNA)
DNA 1: AGCTTCTCCTTGACGTGTAG
DNA 2: CTACACGTCAAGGAGAAGCT
B3: HPD CRE2 (dsDNA)
DNA 1: GGACTATAACCTCGTCTCTT
DNA 2: AAGAGACGAGGTTATAGTCC
B4: GlyP CRE3 (dsDNA)
DNA 1: ACGTCCAACGTCAAACCA
DNA 2: TGGTTTGACGTTGGACGT
B5: GK CRE3 (dsDNA)
DNA 1: GATTGTCAATGTCAATGTCATGAACA
DNA 2: TGTTCATGACATTGACATTGACAATC
B6: Aldh1b1 CRE3 (dsDNA)
DNA 1: CCTGGTTAAGGTTAGAAGTC
DNA 2: GACTTCTAACCTTAACCAGG
B7: Atgl CRE3 (dsDNA)
DNA 1: CGCTCTGACATTGAAAAG
DNA 2: CTTTTCAATGTCAGAGCG
B8: Ca7 CRE4 (dsDNA)
DNA 1: ATTCAATAGGTTATTTCT
DNA 2: AGAAATAACCTATTGAAT
B9: Chsy1 CRE1 (dsDNA)
DNA 1: TCTCACAAGGTTGATGTC
DNA 2: GACATCAACCTTGTGAGA
B10: TPS CRE3 (dsDNA)
DNA 1: GGCTGTAACCTTGTCCTC
DNA 2: GAGGACAAGGTTACAGCC
B11: Ca7 CRE3 (dsDNA)
DNA 1: GACTTCGAATGTCATGTCGC
DNA 2: GCGACATGACATTCGAAGTC
B12: FAH CRE1 (dsDNA)
DNA 1: TTTTTCCAAGGACGTTTGAG
DNA 2: CTCAAACGTCCTTGGAAAAA
B13: UGT33D8 CRE2 (dsDNA)
DNA 1: TCAGGCAAGGTCAAAGCC
DNA 2: GGCTTTGACCTTGCCTGA
B14: GK CRE1 (dsDNA)
DNA 1: CCCCATGACCTTCGCCGG
DNA 2: CCGGCGAAGGTCATGGGG
B15: Akr2e CRE2 (dsDNA)
DNA 1: ACTAGTTAAGGTTACGCTGA
DNA 2: TCAGCGTAACCTTAACTAGT
B16: Ca7 CRE1 (dsDNA)
DNA 1: TAATGTGACTTTGAATCG
DNA 2: CGATTCAAAGTCACATTA
B17: HPD CRE3 (dsDNA)
DNA 1: TCCACAAACGTCAATAGC
DNA 2: GCTATTGACGTTTGTGGA
B18: UGT46A2 CRE2 (dsDNA)
DNA 1: TCGTCGTAACCTTAAAGATA
DNA 2: TATCTTTAAGGTTACGACGA
B19: Ca7 CRE2 (dsDNA)
DNA 1: TTTATTGCCCTTGTAGGC
DNA 2: GCCTACAAGGGCAATAAA
B20: HPD CRE1 (dsDNA)
DNA 1: ACACGCGCCCTTTATATA
DNA 2: TATATAAAGGGCGCGTGT
B21: Acyl CRE1 (dsDNA)
DNA 1: TATATTGCCCTTGTAAGT
DNA 2: ACTTACAAGGGCAATATA
B22: Tret1 CRE3 (dsDNA)
DNA 1: GCGGACTCACAAGGTCCTACCA
DNA 2: TGGTAGGACCTTGTGAGTCCGC

The first data set concerns the target T1, BmERR DBD. Briefly: EMSA; not among Table 2 motifs; EMSA, Beyotime kit buffer (composition not given), 25 °C 25 min; 5% native PAGE in 1x TBE (45 mM Tris-borate, 1 mM EDTA, pH 8.3). Conditions: protein: recombinant; label: biotin 3'; blunt. For orientation: Mobility shift assays separate free from complexed probe on a gel.
In the case of B1, the binding result was “binds”.
As to B2, the binding result is reported as “binds”.

For a further data set, the target named is T1, BmERR DBD. Briefly: EMSA; EMSA, Beyotime kit buffer (composition not given), 25 °C 25 min; 5% native PAGE in 1x TBE (45 mM Tris-borate, 1 mM EDTA, pH 8.3). The settings on record: protein: recombinant; label: biotin 3'; blunt.
Take B3: the binding result was “binds”.
On the same count and under the same terms, next, B4: “binds”; B5: “binds”.
For the molecule B6, the binding result is “binds”.
Still for that read-out and setting: next, B7: “binds”.
On the same count and under the same terms, next, B8: “binds”; B9: “binds”; B10: “binds”.
In the case of B11, the binding result is listed as “binds”.
Same read-out and setting: next, B12: “binds”; B13: “binds”.
On the same count and under the same terms, next, B14: “binds”.
The same measure, in the same setting: next, B15: “binds”; B16: “binds”; B17: “binds”.
With B18, the binding result is “binds”.
On the same count and under the same terms, next, B19: “binds”.
Same read-out and setting: next, B20: “binds”.
Same read-out and setting: next, B21: “binds”.

The target of a further data set is T1, BmERR DBD. Description: EMSA; listed in Table 2; text names only CRE1 and CRE2; EMSA, Beyotime kit buffer (composition not given), 25 °C 25 min; 5% native PAGE in 1x TBE (45 mM Tris-borate, 1 mM EDTA, pH 8.3). Conditions: protein: recombinant; label: biotin 3'; blunt.
Turning to B22, the binding result is “binds”.

(Values after publication PMC12112554, “Estrogen-Related Receptor Potential Target Genes in Silkworm (Bombyx mori): Insights into Metabolic Regulation”.)
